{"source": "the supplement of paper PMC10126150", "note": "± gives the standard deviation of the averaged measurements.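 Further: ATP exposure 15 min at 22 °C before imaging.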", "data": [{"tested_on": "ATP", "assay": "switch fluorescence ratio, 500 uM ATP over buffer (Cy3 cluster intensity, sum of 5 cycles each) (fold (ratio)); higher = stronger signal-on switching upon ATP binding; sequences stand for … in TCGTCGGCAGCGTCAGATGTGTATAAGAGACAGTTTTTTTTTTTTTTTTTTTTTTTTT…TC", "details": "aptamer strand: ATP DNA aptamer (quencher-CACCTGGGGGAGTATTGCGGAGGAAGG + anchor), 100 nM annealed; ATP concentration: 500 uM", "how_it_was_run": "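Between each of five buffer/ATP cycles, the flow-cell was stripped with NaOH and re-annealed. Each cycle imaged Cy3-labelled switching-strand clusters, annealed to 100 nM quencher-labelled ATP aptamer on a modified Illumina MiSeq flow-cell, first in selection buffer and then after 15 min with 500 uM ATP at 22 °C. The fluorescence ratio is summed target-cycle over summed buffer-cycle Cy3 intensity per cluster, averaged per switch-domain sequence, with clusters outside 100-1000 RFU excluded.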", "values": [{"sequence": "AGTTATACAA", "switch fluorescence ratio": "1.01 ± 0.037"}, {"sequence": "AGGATTTTTC", "switch fluorescence ratio": "1.03 ± 0.044"}, {"sequence": "TTAGCGGT", "switch fluorescence ratio": "1.004 ± 0.0093"}, {"sequence": "AGTATTTTGC", "switch fluorescence ratio": "0.969 ± 0.085"}, {"sequence": "CACACTCGCT", "switch fluorescence ratio": "1.01 ± 0.024"}, {"sequence": "CCGGATAGTG", "switch fluorescence ratio": "1.03 ± 0.026"}, {"sequence": "TCCTATAAAA", "switch fluorescence ratio": "0.987 ± 0.032"}, {"sequence": "ACTTGGAGCG", "switch fluorescence ratio": "1.018 ± 0.0092"}, {"sequence": "TTTAAGGAGA", "switch fluorescence ratio": "0.993 ± 0.037"}, {"sequence": "CTGGATAGCG", "switch fluorescence ratio": "0.981 ± 0.044"}, {"sequence": "GTTAGTAGGT", "switch fluorescence ratio": "0.994 ± 0.021"}, {"sequence": "AATTATCTCG", "switch fluorescence ratio": "1.01 ± 0.018"}, {"sequence": "CTTGGTCCTG", "switch fluorescence ratio": "0.9669 ± 0.007"}, {"sequence": "AGGTTGATGG", "switch fluorescence ratio": "0.954 ± 0.043"}, {"sequence": "GCGGTATAC", "switch fluorescence ratio": "2.72 ± 0.14"}, {"sequence": "CCTAAAAGGG", "switch fluorescence ratio": "1 ± 0.032"}, {"sequence": "AGGGAGTTGG", "switch fluorescence ratio": "0.995 ± 0.032"}, {"sequence": "GGGTCGGCAC", "switch fluorescence ratio": "0.968 ± 0.035"}, {"sequence": "TTATTAAGAA", "switch fluorescence ratio": "1.02 ± 0.063"}, {"sequence": "GATGAATGTT", "switch fluorescence ratio": "0.9766 ± 0.0041"}, {"sequence": "TAGGTTTTTC", "switch fluorescence ratio": "1.02 ± 0.078"}, {"sequence": "ATGTCGGATT", "switch fluorescence ratio": "1.002 ± 0.0021"}, {"sequence": "TTCGTAGGGC", "switch fluorescence ratio": "1.01 ± 0.055"}, {"sequence": "TCAATAAAGT", "switch fluorescence ratio": "0.961 ± 0.014"}, {"sequence": "AATTTGATC", "switch fluorescence ratio": "1.03 ± 0.021"}, {"sequence": "ACTATTGGGG", "switch fluorescence ratio": "0.989 ± 0.011"}, {"sequence": "GAGGGGGGAA", "switch fluorescence ratio": "1.01 ± 0.03"}, {"sequence": "CATATGGTAT", "switch fluorescence ratio": "1.02 ± 0.037"}, {"sequence": "CAACAGTTTT", "switch fluorescence ratio": "1 ± 0.012"}, {"sequence": "AAAAATGGGC", "switch fluorescence ratio": "1.035 ± 0.005"}, {"sequence": "TTTAAAAACC", "switch fluorescence ratio": "1.01 ± 0.034"}, {"sequence": "GATCTTTTTG", "switch fluorescence ratio": "1.02 ± 0.014"}, {"sequence": "TATGAAAGGA", "switch fluorescence ratio": "1.011 ± 0.0047"}, {"sequence": "CGGGTCTGCT", "switch fluorescence ratio": "0.985 ± 0.022"}, {"sequence": "TTATGTCAGC", "switch fluorescence ratio": "1.01 ± 0.023"}, {"sequence": "AACAGAAGAG", "switch fluorescence ratio": "1.007 ± 0.01"}, {"sequence": "AAGGCCTTGA", "switch fluorescence ratio": "0.988 ± 0.049"}, {"sequence": "CGGCATTTTT", "switch fluorescence ratio": "1.03 ± 0.036"}, {"sequence": "TATCATTCGG", "switch fluorescence ratio": "1.01 ± 0.043"}, {"sequence": "ATACCTTA", "switch fluorescence ratio": "1.02 ± 0.038"}, {"sequence": "ACCACCGAGG", "switch fluorescence ratio": "1.045 ± 0.0061"}, {"sequence": "GATGGCTTGG", "switch fluorescence ratio": "0.987 ± 0.018"}, {"sequence": "CGTGAGGGGC", "switch fluorescence ratio": "1.028 ± 0.01"}, {"sequence": "CCTTAGGGGC", "switch fluorescence ratio": "1.03 ± 0.026"}, {"sequence": "TTGAAATGTG", "switch fluorescence ratio": "1.01 ± 0.017"}, {"sequence": "GAAGTATTTT", "switch fluorescence ratio": "0.962 ± 0.027"}, {"sequence": "TTCATCATAG", "switch fluorescence ratio": "1.05 ± 0.029"}, {"sequence": "GTTCCGCCTG", "switch fluorescence ratio": "1.094 ± 0.0043"}, {"sequence": "CATTTTAGGG", "switch fluorescence ratio": "0.988 ± 0.027"}, {"sequence": "GGGCATCTAG", "switch fluorescence ratio": "0.9863 ± 0.0013"}, {"sequence": "ATTGATCGAT", "switch fluorescence ratio": "1.02 ± 0.035"}, {"sequence": "TCTTAGCATT", "switch fluorescence ratio": "1.04 ± 0.077"}, {"sequence": "ATGGTCTCTT", "switch fluorescence ratio": "0.987 ± 0.013"}, {"sequence": "TCCTAAATGT", "switch fluorescence ratio": "0.976 ± 0.048"}, {"sequence": "AGGGGTTGGC", "switch fluorescence ratio": "0.958 ± 0.056"}, {"sequence": "AAACGAGGGA", "switch fluorescence ratio": "0.997 ± 0.051"}, {"sequence": "ATAAGGCGAG", "switch fluorescence ratio": "0.998 ± 0.025"}, {"sequence": "GTCGCGGGGG", "switch fluorescence ratio": "1.04 ± 0.071"}, {"sequence": "TTTAGTACTG", "switch fluorescence ratio": "1.05 ± 0.032"}, {"sequence": "TGGTGGGGG", "switch fluorescence ratio": "1.01 ± 0.051"}, {"sequence": "AAGGGTTGG", "switch fluorescence ratio": "0.99 ± 0.015"}, {"sequence": "GGGAAGAGTT", "switch fluorescence ratio": "0.994 ± 0.012"}, {"sequence": "TTCTCGTGTG", "switch fluorescence ratio": "0.974 ± 0.035"}, {"sequence": "TTCAAGTAGT", "switch fluorescence ratio": "0.997 ± 0.02"}, {"sequence": "TTCAGGAATG", "switch fluorescence ratio": "1.01 ± 0.049"}, {"sequence": "CTGATAAAGG", "switch fluorescence ratio": "0.969 ± 0.048"}, {"sequence": "TTTTGATATC", "switch fluorescence ratio": "0.997 ± 0.012"}, {"sequence": "GTGTAGGCTT", "switch fluorescence ratio": "1 ± 0.015"}, {"sequence": "CTCAGTAATT", "switch fluorescence ratio": "1.38 ± 0.046"}, {"sequence": "AGTTTTAAGG", "switch fluorescence ratio": "1 ± 0.025"}, {"sequence": "CTCGTGAACT", "switch fluorescence ratio": "1.048 ± 0.0022"}, {"sequence": "GATACTTGGG", "switch fluorescence ratio": "0.989 ± 0.035"}, {"sequence": "ATAGTGGTGG", "switch fluorescence ratio": "1.01 ± 0.052"}, {"sequence": "GCTGTTCACG", "switch fluorescence ratio": "1.01 ± 0.014"}, {"sequence": "GAAGCGTCGT", "switch fluorescence ratio": "0.983 ± 0.063"}, {"sequence": "ACTAAATCCT", "switch fluorescence ratio": "1.19 ± 0.02"}, {"sequence": "TGTTTTTGT", "switch fluorescence ratio": "1.18 ± 0.29"}, {"sequence": "TTACGGTGGC", "switch fluorescence ratio": "0.989 ± 0.045"}, {"sequence": "CACCTCATAA", "switch fluorescence ratio": "1.06 ± 0.011"}, {"sequence": "TCATGAACAG", "switch fluorescence ratio": "0.993 ± 0.014"}, {"sequence": "CAGGGAAGCG", "switch fluorescence ratio": "0.991 ± 0.018"}, {"sequence": "GGAAAGGGAG", "switch fluorescence ratio": "0.97 ± 0.02"}, {"sequence": "ACGGTGGTGG", "switch fluorescence ratio": "1.12 ± 0.12"}, {"sequence": "CCGTTGGACT", "switch fluorescence ratio": "1.24 ± 0.067"}, {"sequence": "GTGATGACTT", "switch fluorescence ratio": "1.001 ± 0.0061"}]}]}
